{"source": "a protein production outcome set (Wang et al. 2014)", "assay": "label from the status in PepcDB records"}
{"sequence": "NENNTVVAETKTSTASETSEPKQVISSKQQLASLYLQAKQSLFKQRALSATMYGLSQKDIGQVISSDMEFYSPENEKQLRAELLSISNTIAGIKLDDADITTKNNQQVMAGLTRYFAGEPNFNIGYIDTWMGLSPFIVNQINGPLIDIPRVMQNDQPITTEKEALDYIVRLGQFDKLAATIIEKQTADAAQNWLPSKVTLQGAIKYLKGFTSGSAEQHPFVNVFREKIEKVDSLTTEQKQSLITQVIAKVSQVVYPAYQSVEKASEQLLSEARSESGIWAQPKGSVYYQDAIKQLGDSELSPTQIHQIGLDEVARISGVMNEILLAQGYTKGTVGERMVALNEEPRFLYEDSIAGREELLSDINGYITEVTAKMAPVFRTTPSYQVEVKSFPVEVQDGAPGGQYTSPAVDGSKPGIYWINLRDMKANPKFGLKTLTYHEANPGHHWQIALNLDQAELPFLRRIAPYNAYTEGWALYSEQVAYELGMYENDPFGDLGRLQAELFRAVRLVVDTGLHDKRWTREQAISYMSEQTGTAESDVVAEIERYMAWPGQALGYKLGMLKILSLREQAKARLGDKFDLAEFHDVVLLNGAVPMAVLSRNVNHWLDNK", "values": [{"measurement": "protein production", "value": "not failed"}]}
{"sequence": "NGDQQTMVYIVSAKRKIIADRMLQELDLGVTMLQAVGAYKNNETEVIMCVMRKATLVKVRNLLKEVDPDAFMIVSTANEVFGEGFKNQYETEI", "values": [{"measurement": "protein production", "value": "not failed"}]}
{"sequence": "NGMDEEQRQKRRRIEVALIEYRETLEEQGMKNPEEIERKVEINRKRLEVDYGLS", "values": [{"measurement": "protein production", "value": "not failed"}]}
{"sequence": "NGQAITLASKHYGSVNSAADLKGMVLGIPFEYSVHALLLRDYLVSNAVDPIADLELRLLRPADMVAQLTVEGIDGFIGPGPFNERAISNGSGRIWLLTKQLWDKHPCCAVAMAKEWKAEHPTAAQGVLNALEEASAILSNPA", "values": [{"measurement": "protein production", "value": "failed"}]}
{"sequence": "NILFGISDTQECYNAIKFAVKLAHSLKEVRFTLLHVSMEVFIYSESGMMDYGQTEALEEEKAKALLKQFEDAFKKENIECESVLKSGDLIDVVLDMAKDYDLLLIGASESNLLYRLFISHQNSLVEQSSIPVVIAK", "values": [{"measurement": "protein production", "value": "failed"}]}
{"sequence": "NKIPTTMAFRTVTDVDNAVNGLYDLMSGSGYYGAAMFAYGDMKGDDMQSSEESGVCNTCYMFNHRPNSLNAGSLWGRPFYILREAWNILNAIAEGKIESGDEKKLNALKGETMAVIALCQFDLTRCFGYPYTKDKGASLGAPLIDHLVGTYENPPRSTVAQAYDFIIETLEEAVTLMSEEKNNGRMNKYAARALLARIYLYHDDNRKAFDLADQLIKDADTSGSYALYPHEKYVAAWSVEAKFGSESFFEIANSVDDTPGRDSWGYLLNWYGYQKGFVTQKYAEQMLADPGDVRGHLLEENKYAGKTVWWLYKLRGTDLKTAPLECNNVVLRLSEVYLIAAEAGCKLGGDAAVQGLGYLNEIVKRGNPDNEVTMADYTLDRVLDERSKELVGEGHRFFDLLRNGKTIVRKGGYHLPSVDEEVDWDFYKCVLPIPEDQFIFSPEMEQNPGYPKN", "values": [{"measurement": "protein production", "value": "not failed"}]}
{"sequence": "NLLDDAVKRISEDPPCKCPTKFCVERLSQGRYRVGEKILFIRMLHNKHVMVRVGGGWETFAGYLLKHDPCRMLQISRVDGKTSP", "values": [{"measurement": "protein production", "value": "not failed"}]}
{"sequence": "NMRQVLKTDRLVLEPQSMARFDQWFAMERQRDEAGHRDLTEDQAWLRLCARQGMWDAYACGFYYLLDPVSGEMRGEAGFQFRRRGFGPGFDNHPEAAWAVASAHQGRGLAAEAMQALLAHHDRSSGRQRVVALIARSNLPSLRLAERLGFR", "values": [{"measurement": "protein production", "value": "failed"}]}
{"sequence": "NMTISDIQHAPDYALLSNDEQQLCIQLKILPKPYLVLKEVMFRELLKTGGNLSKSACRELLNIDPIKANRIYDFFQSQNWM", "values": [{"measurement": "protein production", "value": "not failed"}]}
{"sequence": "NNDDDGTNKAQEIAGKYEGYSIGNCAMFTDYVMGEKSVATIVPNEDGTINVTYDSGSGEFKLNNIKVTSKTFEGSGQVELSMNDKPAGAKDFTLTGSIDEQQKLTLKVNVPSVMGGLTIEFIQGTLPISYHVSGTYNKEANLSVSVGSTTYPDITDCKVSIKRSSDDTVELTLKGLSNLNSSQTGRAMNLGDFTVTDVKVTSTDNSIFKIEGSINTTDTNNTPITGTLSGTVSNSETNITFTFKPGAMPIDITAMFKGKK", "values": [{"measurement": "protein production", "value": "not failed"}]}
